Test results taken from PMC2175287 (The Journal of Cell Biology, 2000).
Values belong to the molecule of their own block, whether it stands above or below them.

What was measured:
Mtr10p = Mtr10p (UniProt Q99189); test: GST pull-down, S-tag blot, no extract; details: reference: mock-phosphorylated GST-Npl3p; sites S411
Mtr10-Protein A = target: T1, Mtr10-Protein A (S. cerevisiae, UniProt Q99189 1-972); test: co-IP
T1 sequence (looked up): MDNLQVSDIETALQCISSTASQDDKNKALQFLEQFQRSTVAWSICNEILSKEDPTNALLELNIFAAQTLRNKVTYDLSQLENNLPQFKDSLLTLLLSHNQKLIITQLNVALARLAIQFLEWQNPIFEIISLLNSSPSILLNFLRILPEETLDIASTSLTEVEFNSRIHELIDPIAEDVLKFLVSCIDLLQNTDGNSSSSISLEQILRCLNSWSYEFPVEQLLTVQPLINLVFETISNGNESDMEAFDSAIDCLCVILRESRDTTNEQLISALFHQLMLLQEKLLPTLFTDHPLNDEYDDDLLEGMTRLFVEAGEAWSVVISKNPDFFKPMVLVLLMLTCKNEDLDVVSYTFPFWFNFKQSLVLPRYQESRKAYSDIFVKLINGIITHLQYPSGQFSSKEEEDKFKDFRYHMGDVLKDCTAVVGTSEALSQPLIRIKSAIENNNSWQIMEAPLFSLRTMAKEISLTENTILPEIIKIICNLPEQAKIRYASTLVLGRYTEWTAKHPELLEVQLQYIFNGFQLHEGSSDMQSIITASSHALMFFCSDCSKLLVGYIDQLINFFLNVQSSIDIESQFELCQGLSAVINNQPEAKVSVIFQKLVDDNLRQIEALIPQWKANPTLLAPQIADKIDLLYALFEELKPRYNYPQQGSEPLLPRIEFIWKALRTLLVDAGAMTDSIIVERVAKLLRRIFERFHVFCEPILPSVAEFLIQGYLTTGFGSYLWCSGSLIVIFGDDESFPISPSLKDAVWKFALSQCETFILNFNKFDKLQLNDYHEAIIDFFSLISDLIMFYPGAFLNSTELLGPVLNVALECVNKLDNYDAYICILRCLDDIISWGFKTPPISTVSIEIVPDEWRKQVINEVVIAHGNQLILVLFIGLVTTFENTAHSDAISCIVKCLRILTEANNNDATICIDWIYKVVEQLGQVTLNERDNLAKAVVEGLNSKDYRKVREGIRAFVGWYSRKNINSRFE

[1] = target: T2, in vitro-translated 35S-labeled Mtr10p (S. cerevisiae, UniProt Q99189 1-972, 35S-labeled)
T2 sequence (looked up): T1 sequence (looked up)

binding against the reference (Mtr10p): stronger
Molecule: Npl3p (from UniProt Q01560) Sky1p-phosphorylated GST-Npl3p

fold reduction of co-precipitated Npl3p in sky1Δ against wild-type yeast (Mtr10-Protein A): 3 fold
B1: Npl3p (endogenous) (natural protein, S. cerevisiae (endogenous in yeast), UniProt Q01560 1-414, looked up)
chain: MSEAQETHVEQLPESVVDAPVEEQHQEPPQAPDAPQEPQVPQESAPQESAPQEPPAPQEQNDVPPPSNAPIYEGEESHSVQDYQEAHQHHQPPEPQPYYPPPPPGEHMHGRPPMHHRQEGELSNTRLFVRPFPLDVQESELNEIFGPFGPMKEVKILNGFAFVEFEEAESAAKAIEEVHGKSFANQPLEVVYSKLPAKRYRITMKNLPEGCSWQDLKDLARENSLETTFSSVNTRDFDGTGALEFPSEEILVEALERLNNIEFRGSVITVERDDNPPPIRRSNRGGFRGRGGFRGGFRGGFRGGFSRGGFGGPRGGFGGPRGGYGGYSRGGYGGYSRGGYGGSRGGYDSPRGGYDSPRGGYSRGGYGGPRNDYGPPRGSYGGSRGGYDGPRGDYGPPRDAYRTRDAPRERSPTR

Kd [1]: 30 nM
B2: GST-Npl3p phosphorylated by Sky1p (natural protein, S. cerevisiae, UniProt Q01560 1-414, looked up)
chain: B1 chain
modifications: phosphoserine at 411 (single site of Sky1p)
